According to US20060199228A1 (KING S COLLEGE LONDON, published 2006):

B1: preproinsulin peptide C13-C32 (peptide)
peptide: GGGPGAGSLQPLALEGSLQK
notes: Synthetic peptide; also called C13-32
B2: preproinsulin peptide C3-C26 (peptide)
peptide: EDLQVGQVELGGGPGAGSLQPLAL
B3: preproinsulin peptide C22-A5 (peptide)
peptide: QPLALEGSLQKRGIVEQ
notes: Synthetic peptide
B4: preproinsulin peptide C19-A3 (peptide)
peptide: GSLQPLALEGSLQKRGIV
notes: Synthetic peptide; also called PI C19-A3; Proinsulin C19-A3
B5: preproinsulin peptide C4-C27 (peptide)
peptide: DLQVGQVELGGGPGAGSLQPLALE

Molecular target: T1, HLA-DR4 immunoaffinity-purified from Priess EBV-transformed B cells (DRB1*0401)
T1 construct: Detergent-solubilised native protein, purified with the anti-HLA-DR mAb L243; Priess cells also carry DRw53, which the L243 column would not separate; The elution used cells pulsed with preproinsulin; also called soluble HLA-DR4
Experiment: competition against 2.5 µM biotinylated invariant chain 98-117 for purified HLA-DR4, L243 capture, DELFIA
Experimental: A further selection step was applied based on the following novel initiative. […] HLA-DR4 molecules used in this assay were purified from resting, unmanipulated Priess cell pellets, using the immunoaffinity column approach described above in method 1.1. […] Plates were incubated for a further 1 hour at room temperature and washed 5 times in TBST. Europium-conjugated streptavidin (Perkin Elmer Ltd., Hounslow, UK) was added at 1 μg/ml in dissociation-enhanced time-resolved fluoroimmunoassays (DELFIA) assay buffer (Wallac Oy, Turku, Finland) and incubated for 45 minutes at room temperature. Wells were washed a further 5 times in TBST and 100 μl DELFIA enhancement solution added to each well. Fluorescent intensity was measured in a DELFIA fluorimeter.

IC50 | Binder
5000 nM | B1
3000 nM | B2
400 nM | B3
500 nM | B4
3000 nM | B5
